Experimental findings from patent publication US20250179210A1, “ANTI-CEACAM5 ANTIBODIES AND CONJUGATES AND USES THEREOF” (Merck Patent GmbH, priority 2022, published 2025) are described below.

The target of this assay is Recombinant Macaca fascicularis CEACAM5_ECD-His-biotin (Syngene) (Macaca fascicularis). Kind of assay: BLI (Octet Red), biotinylated antigen captured on streptavidin biosensor, Fab as analyte 6.25-200 nM.
Recombinant Macaca fascicularis CEACAM5_ECD-His-biotin (Syngene) (Macaca fascicularis), sequence (chain, as listed by the source limits assumed, form in doubt): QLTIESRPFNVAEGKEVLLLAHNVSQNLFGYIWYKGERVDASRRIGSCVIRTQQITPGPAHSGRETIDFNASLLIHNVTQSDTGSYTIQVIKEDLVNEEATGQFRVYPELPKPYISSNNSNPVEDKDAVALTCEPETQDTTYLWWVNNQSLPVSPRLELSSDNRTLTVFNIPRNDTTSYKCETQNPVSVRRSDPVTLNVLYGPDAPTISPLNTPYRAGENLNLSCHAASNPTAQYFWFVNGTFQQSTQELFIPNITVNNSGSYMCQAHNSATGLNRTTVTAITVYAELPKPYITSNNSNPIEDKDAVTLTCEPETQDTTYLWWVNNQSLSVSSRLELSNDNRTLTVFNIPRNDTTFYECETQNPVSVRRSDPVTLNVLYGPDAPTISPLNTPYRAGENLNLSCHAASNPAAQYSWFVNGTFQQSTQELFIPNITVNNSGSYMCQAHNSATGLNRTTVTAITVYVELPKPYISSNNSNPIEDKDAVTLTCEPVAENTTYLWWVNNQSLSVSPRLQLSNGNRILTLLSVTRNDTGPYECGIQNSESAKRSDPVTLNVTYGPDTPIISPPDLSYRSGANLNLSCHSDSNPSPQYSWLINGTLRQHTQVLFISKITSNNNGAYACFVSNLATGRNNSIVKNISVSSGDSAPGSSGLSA

B1: Fab of mAb1 (Fab, V domains shown)
VH: EVQLQESGPGLVKPSQTLSLTCTVSDGSVSRGGYYLTWIRQHPGKGLEWIGYIYYSGSTYFNPSLRSRVTMSVDTSKNQFSLKLSSVTAADTAVYYCARGIAVAPFDYWGQGTLVTVSS
VL: EIVLTQSPATLSVSPGERATLSCRTSQSVRSNLAWYQQKPGQAPRLLIYAASTRATGIPARFSGSGSGTEFTLTISSLQSEDFAVYYCQQYTNWPFTFGPGTKVDIK
Turning to B1, the Kd amounted to 14.1 nM.
